The source of these data is publication PMC4164784, “4E-BPs require non-canonical 4E-binding motifs and a lateral surface of eIF4E to repress translation” (Nature Communications, 2014).

“Also recorded” adds a separate entry of the source.

Experiment [1] has as its target T1, SHN-eIF4E (full length, II-AA mutant) (Drosophila melanogaster, UniProt P48598-2 1-248, Ile96 to Ala (II-AA) | Ile112 to Ala (II-AA)).
T1 construct: eIF4E, Drosophila melanogaster; also called SHN-tagged eIF4E II-AA; not shown: Strep-NusA-His (SHN), N-terminal, kept
T1 sequence (looked up): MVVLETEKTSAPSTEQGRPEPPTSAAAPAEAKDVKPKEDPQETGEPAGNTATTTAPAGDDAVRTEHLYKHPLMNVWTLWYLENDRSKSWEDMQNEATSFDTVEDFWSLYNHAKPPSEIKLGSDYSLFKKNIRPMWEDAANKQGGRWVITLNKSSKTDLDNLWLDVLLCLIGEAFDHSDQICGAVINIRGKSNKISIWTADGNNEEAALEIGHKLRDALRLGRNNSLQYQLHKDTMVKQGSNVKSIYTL
Nature of the experiment: pull-down; preassembled complexes of SHN-eIF4E (WT or II-AA) with GST-eIF4G, GST-CUP, GST-Thor or GST-4E-T (coexpressed, purified on glutathione agarose) recovered on Strep-Tactin beads. The conditions noted are these: both partners purified.

The target in experiment [2] is T2, SHN-eIF4E (full length, WT) (Drosophila melanogaster, UniProt P48598-2 1-248).
T2 construct: eIF4E, Drosophila melanogaster; also called SHN-tagged eIF4E; SNH-tagged eIF4E; not shown: Strep-NusA-His (SHN), N-terminal, kept
T2 sequence (looked up): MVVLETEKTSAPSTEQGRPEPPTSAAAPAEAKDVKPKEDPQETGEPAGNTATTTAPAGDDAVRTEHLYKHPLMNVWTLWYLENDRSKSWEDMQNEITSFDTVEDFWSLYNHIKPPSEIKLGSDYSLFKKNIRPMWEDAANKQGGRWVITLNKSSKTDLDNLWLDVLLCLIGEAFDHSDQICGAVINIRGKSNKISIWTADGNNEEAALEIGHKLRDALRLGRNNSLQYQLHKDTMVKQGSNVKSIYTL
The experiment is described as above. The conditions noted are these: both partners purified.

The target of experiment [3] is T2, SHN-eIF4E (full length, WT). Nature of the experiment: pull-down; competition: purified SHN-eIF4E–GST-eIF4G complex with fivefold molar excess of purified MBP-Thor, 30 min at 4 °C; Strep-Tactin beads. The conditions noted are these: both partners purified.
Another experiment relates to endogenous eIF4E. Briefly: Coimmunoprecipitation / m7GTP pull-down with endogenous eIF4E in S2 cell lysates. The format is cell-based, Drosophila melanogaster. The conditions noted are these: western blot. Here is the method: The coimmunoprecipitations assays were performed as previously described. For the pull downs using m^7GTP beads, 25 μl of immobilized γ-aminophenyl-m^7GTP (C10-spacer—Jena Bioscience) beads was added to the cell lysates and the mixtures were rotated for 1 h at 4 °C. The beads were washed three times with NET buffer (50 mM Tris (pH 7.4), 150 mM NaCl, 1 mM EDTA and 0.1% Triton X-100). The bound proteins were eluted with 2 × SDS–polyacrylamide gel electrophoresis (SDS–PAGE) sample buffer and analyzed by western blotting (WB). All of the WB experiments were developed with the ECL western blotting detection system (GE Healthcare) as recommended by the manufacturer. The antibodies used in this study are listed in Supplementary Table 2.
Thor and 4E-T) or HA-eIF4G and endogenous eIF4E in S2 cell lysates. The proteins were immunoprecipitated using a polyclonal anti-eIF4E antibody (α-4E). The pre-immune (Pre-I) serum and an HA-tagged version of MBP served as negative controls. The inputs (1%) and immunoprecipitates (10%) were analyzed by western blotting using anti-HA and anti-eIF4E antibodies. (b,c) The interaction of HA-tagged full length 4E-BPs (CUP, Thor and 4E-T) and eIF4G with endogenous eIF4E was analyzed by coimmunoprecipitation using anti-HA antibodies (b) or by pull-down using m7GTP-Sepharose beads (c). HA-MBP served as a negative control. The inputs (10%) and immunoprecipitates (30%) were analyzed by western blotting using anti-HA and anti-eIF4E antibodies. (d) Western blot showing the interaction of HA-Thor (full-length either wild-type or mutants) with endogenous eIF4E in S2 cells. The proteins were immunoprecipitated using anti-HA antibodies and analyzed as described in (b,c). (e) Western blot showing the interaction of HA-4E-T (residues 1–511, wild-type or mutants) with endogenous eIF4E. The proteins were immunoprecipitated using anti-HA antibodies and analyzed as described in (b,c). The size markers (kDa) are shown to the right of each panel. Mutants are described in Supplementary Table 1.

Another experiment relates to eIF4E (full length, WT). Nature of the experiment: GST/MBP pull-down of full-length WT eIF4E, coexpressed in E. coli. The format is binding, Drosophila melanogaster. The conditions noted are these: recombinant CUP (311–440), Thor (full length), 4E-T (1–58) or eIF4G (578–650), WT or mutant, SDS–PAGE. As to the method:
For the pull-down assays shown in Fig. 3 and Supplementary Fig. 6a, the full-length His6- or SHN-tagged eIF4E (WT or II-AA mutant) was coexpressed with GST or MBP-tagged protein fragments, including CUP (residues 311–440), Thor (full length), 4E-T (residues 1–58) or eIF4G (residues 578–650) in E. coli BL21 (DE3) STAR cells in autoinducing medium[44] overnight at 20 °C. The cells were resuspended in lysis buffer (20 mM Tris–HCl (pH 7.5), 100 mM NaCl, 1 mM DTT) supplemented with EDTA-free protease inhibitor (Roche) and lysed by sonication. The cleared lysates were incubated for 1 h with 20 μl of Protino Glutathione Agarose 4B beads (Macherey-Nagel) or amylose resin (New England Biolabs). The beads were washed three times with lysis buffer, and the bound proteins were eluted with lysis buffer containing 25 mM L-glutathione or 25 mM maltose for 15 min. The proteins were analyzed by 10–15% SDS–PAGE followed by Coomassie blue staining.

The target in experiment [4] is T3, eIF4E–eIF4G complex (eIF4E WT; eIF4G residues 578–650) (Drosophila melanogaster, UniProt P48598).
T3 construct: full-length eIF4E (WT or the II-AA mutant) containing an N-terminal SNH-tag was coexpressed; made in house; host or cells: E. coli BL21 Star (DE3), coexpression
T3 sequence (P48598 1-248 isoform P48598-2): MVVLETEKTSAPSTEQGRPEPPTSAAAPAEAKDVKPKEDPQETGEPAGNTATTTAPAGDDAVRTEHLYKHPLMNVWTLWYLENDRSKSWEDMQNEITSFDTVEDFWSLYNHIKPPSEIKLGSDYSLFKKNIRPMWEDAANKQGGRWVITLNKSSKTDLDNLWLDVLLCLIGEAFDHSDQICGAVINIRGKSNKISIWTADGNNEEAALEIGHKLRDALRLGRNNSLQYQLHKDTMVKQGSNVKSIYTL
Briefly: Competition assay, displacement of GST-eIF4G from preassembled eIF4E (WT)–eIF4G complexes. Format: biochemical. The conditions noted are these: Fig. 5a,c; fivefold molar excess of MBP-tagged competitor, 30 min at 4 °C, m7GTP or Strep-Tactin pull down. As to the method: For the competition assays shown in Figs 5a,c and 6a,b, complexes containing SHN- or MBP-tagged eIF4E (WT or II-AA mutant) bound to GST-eIF4G (residues 578–650), GST-Thor (full length), GST-4E-T (residues 1–58) or GST-CUP (311–440) were obtained by coexpressing the corresponding proteins in E. coli BL21 (DE3) STAR cells (30 ml culture). The cells were resuspended in lysis buffer (5 ml) that was supplemented with EDTA-free protease inhibitor (Roche) and 1 mg ml^−1 lysozyme and lysed by sonication. The cleared lysates were incubated with 400 μl of Protino Glutathione Agarose 4B (Macherey-Nagel) for 1 h. The beads were washed three times with lysis buffer, and the proteins were eluted after 10 min of incubation with lysis buffer containing 25 mM L-glutathione. The protein complexes were stored at −20 °C or used in competition assays.
The purified recombinant complexes were mixed with excess amounts of the indicated purified competitor proteins (Fig. 5c) or with bacterial lysates expressing the competitor proteins (Figs 5a and 6) and incubated for 30 min at 4 °C. After incubation, 20 μl of immobilized γ-Aminophenyl-m^7GTP or Strep-Tactin Sepharose (IBA), were added to the samples and incubated for another 40 min at 4 °C. The beads were washed three times with lysis buffer and eluted with lysis buffer containing 2.5 mM desthiobiotin (Strep-Tactin Sepharose) or with 20 μl of SDS–PAGE loading buffer (Aminophenyl-m^7GTP beads). The proteins were analyzed by 10–15% SDS–PAGE followed by staining with Coomassie blue staining. […]

B1: GST-CUP (residues 311–440) (domain or fragment, Drosophila melanogaster, UniProt Q9VMA3 311-440, looked up)
chain: VRPTTAPVVSSKPVKSYTRSRLMDIRNGMFNALMHRSKESFVMPRIATCDDIELEGRLRRMNIWRTSDGTRFRTRSTTANLNMNNNNNNECMPAFFKNKNKPNLISDESIIQSQPPQPQTEFQDPAIVNQ
notes: CUP, Drosophila melanogaster, residues 311–440; may be the same construct as m25; source: E. coli BL21 (DE3) STAR, coexpressed with SHN-eIF4E, complex purified on glutathione agarose
For the molecule B1, the binding result in experiment [1] and in experiment [2] was “binds” in each case.

B2: MBP-Thor (full length, WT) (natural protein, Drosophila melanogaster, UniProt Q9XZ56 1-117, looked up)
chain: MSASPTARQAITQALPMITRKVVISDPIQMPEVYSSTPGGTLYSTTPGGTKLIYERAFMKNLRGSPLSQTPPSNVPSCLLRGTPRTPFRKCVPVPTELIKQTKSLKIEDQEQFQLDL
notes: Thor, Drosophila melanogaster; not shown: MBP, N-terminal, kept
For the molecule B2, the binding result in experiment [3] is recorded as “binds”.

B3: Thor ΔNC: Thor ∆76–84, non-canonical motif deleted (protein)
chain: MSASPTARQAITQALPMITRKVVISDPIQMPEVYSSTPGGTLYSTTPGGTKLIYERAFMKNLRGSPLSQTPPSNVRTPFRKCVPVPTELIKQTKSLKIEDQEQFQLDL
modifications: left off: HA (λN-HA, from the vector pAc5.1-λN-HA), end not stated, kept | V5, end not stated, state not stated
notes: Thor ∆76–84, non-canonical motif deleted
For the molecule B3, the “interaction with endogenous eIF4E (in words)” value in the experiment on endogenous eIF4E is “abolished the interaction with eIF4E”. For the same molecule, the “binding to WT eIF4E (in words)” value with eIF4E (full length, WT) is “The results obtained for the Thor NC* and C+NC* mutants were confirmed; also recorded: interacted with eIF4E”. Besides, the “competition with eIF4G for eIF4E WT (in words)” value in experiment [4] is “abolish its ability to compete with eIF4G”.
